Source: the supplement of paper PMC10567573
± gives the standard deviation.

Test: protein stability index of a GFP-peptide fusion (GPS, HEK-293T) (PSI 1-6); higher = more stable
Conditions: c terminus: a fixed tail appended
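Also: 24-mer peptide tiles fused after GFP, lentivirally expressed, FACS-sorted into six equal bins by GFP/DsRed ratio, decoded by Illumina sequencing, PSI is the read-weighted mean bin number.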

Row | Sequence | protein stability index (treatment: DMSO) | protein stability index (treatment: MLN4924 1 uM, 8 h)
1 | LASHLPVGVMLPHNTTEAPGPHSA [ZC2HC1C] | 4.3 ± 0.21 | 4.17 ± 0.21
2 | EPGNFIPLFTPQSPVTATLSDEDD [CDC25A] | 5.56 ± 0.18 | 5.69 ± 0.13
3 | TTLEIHNTEERQKRQVTHFQFLSW [PTPN9] | 2.28 ± 0.41 | 2.78 ± 0.59
4 | SKYQLSEAQLSLIRDIRRRGKNKM [NFE2L1] | 3.69 ± 0.28 | 3.9 ± 0.54
5 | ELRTAKDSDDDDDVAVTVDRDRFM [STX1A] | 5.37 ± 0.06 | 5.25 ± 0.14
6 | YWTKYYDFKNPIIEKYLRRQLTKP [OAS1] | 1.94 ± 0.33 | 2.11 ± 0.19
7 | KSERRNLLEDDSDEEEDFFLRGPS [VAMP4] | 5.09 ± 0.26 | 5.15 ± 0.66
8 | EVDVQEAGAGWWVGAAYASLRRRG [TRIM14] | 3.4 ± 0.28 | 3.38 ± 0.4
9 | RFFGPNAEISQPPALSQLVNLYLG [TCF25] | 3.05 ± 0.19 | 2.96 ± 0.36
10 | RQILHLITMMALKVLGELNILPNT [TENT5D] | 3.42 ± 0.64 | 2.81 ± 0.1
11 | KRSAPSGPVRSSSGMGGRAPVSRG [RBMX] | 4.59 ± 0.25 | 4.57 ± 0.16
12 | VKETGYFFIYGQVLYTDKTYAMGH [TNFSF13B] | 2.86 ± 1.5 | 2.41 ± 0.86
13 | EAAGSFTSSLAQPGAYYPYERTLG [IRX6] | 3.24 ± 0.14 | 3.28 ± 0.42
14 | ELFYRVNYIGTKNVIETCKEAGVQ [NSDHL] | 2.14 ± 0.21 | 2.08 ± 0.54
15 | ASSPSIRQKKLMHKLQEEKAFREE [CCDC70] | 4.24 ± 0.17 | 4.66 ± 0.14
16 | MGHCCCKPYNCLQCLDKTNESALV [MTUS2] | 3.28 ± 0.3 | 3.4 ± 0.34
17 | PTYKGLLMSLQNQLKESKSKIDAL [CEP70] | 2.45 ± 0.22 | 2.86 ± 0.19
18 | VIRRLDETVVNRIAAGEVIQRPAN [MLH1] |  | 3.92 ± 0.28
19 | QKLYVRLFQRKLSWIKMTKLEYEE [FAN1] | 2.63 ± 1.1 | 2.44 ± 0.6
20 | VVLPGAVSLRYSGATAASETLSGH [ADAMTS4] | 2.95 ± 0.46 | 2.96 ± 0.41
21 | PVHIHPAFARQAAQEPSAVPRAGP [FOXJ1] | 4.45 ± 0.088 | 4.22 ± 0.15
22 | SLKEEHRAYDLLRAASENSQDALR [IKZF1] | 4.32 ± 0.52 | 4.36 ± 0.34
23 | EALYAQDPSTGCYMYYFQYLSKTY [KMT5A] | 3.26 ± 0.94 | 2.42 ± 1.1

Row | Sequence | protein stability index (treatment: DMSO) | protein stability index (treatment: MLN4924 1 uM, 8 h)
24 | DKPSEPASEEGSESEGSESSGRSC [SMG5] | 5.56 ± 0.25 | 5.6 ± 0.14
25 | RKKRLLDRKVLLKSDSPTGDVLLD [GOLPH3L] | 4.22 ± 0.14 | 4.14 ± 0.19
26 | QKLQDVLHEALQDYEAGQHMEDPR [ESRRG] | 4.72 ± 0.34 | 5.13 ± 0.26
27 | DRARRFEEALRKNTEEQLEIALAP [MTUS2] | 4.9 ± 0.22 | 4.85 ± 0.28
28 | ELQSLMHQPKGLEEENAQLRGALQ [PBXIP1] | 4.25 ± 0.23 | 4.04 ± 0.29
29 | RRWKLQVLDLRKNSHQDFWTVWSG [PRAME] | 2.46 ± 0.73 | 2.07 ± 0.44
30 | YVFFVLAVMEHAESKMYATSPYSD [PTPRD] | 3.02 ± 0.82 | 3.28 ± 0.78
31 | GCMLIELALRGRLQLEACGMRRKS [GOLPH3] | 1.83 ± 0.31 | 2.25 ± 0.28
32 | QLSAPHCKKLSLELGGKNPAIIFE [ALDH8A1] | 2.8 ± 0.26 | 2.9 ± 0.43
33 | MLSWILRINLVAAIFSAPAFPAAV [PSD2] | 3.23 ± 0.19 | 2.89 ± 0.39
34 | EEDKDEKSSIYESDFQIEPGFYAT [MIA2] | 4.61 ± 0.062 | 4.46 ± 0.4
35 | FRLPGLSRREREPEPPAAVDFLEP [FCHO1] | 4.24 ± 0.3 | 4.31 ± 0.33
36 | GGSKYLIYRRYRQFHALQSKLEER [NCF4] | 2.45 ± 0.35 | 2.45 ± 0.33
37 | WSGEVKDKNVQVVELPIVDSLHPR [FUT8] | 4.17 ± 0.17 | 4.29 ± 0.15
38 | ERILGPSHPDTSYYIRYRGAVYAD [FEM1A] | 2.94 ± 0.2 | 2.92 ± 0.29
39 | KLVRSPSGLRMVPEHRAFGSPFGL [ZFYVE21] | 2.32 ± 0.076 | 2.28 ± 0.22
40 | ETQLKACASFIRTRLLLQFTQPQQ [C8orf76] | 2.93 ± 0.65 | 2.86 ± 0.88
41 | ILFLNKKDLFEEKIKKSPLTICYP [GNAI1] | 2.43 ± 0.9 | 2.21 ± 0.75
42 | SSFFFSGVFVGVISFGQLSDRFGR [SLC22A15] | 2.96 ± 0.94 | 3.021 ± 0.018
43 | LIFGLITCLTGVLGVGLGVEISRR [SPNS1] | 2.66 ± 0.23 | 3.13 ± 0.46
44 | LEHVRALIKKYSDHLENVSKLVES [TRIM55] | 3.02 ± 0.28 | 3.1 ± 0.17
45 | ELAYMKKNHEEEMKEFSNQVVGQV [KRT13] | 4.7 ± 0.26 | 4.66 ± 0.14
46 | FFAFLHCWLNAFAEMLRFGDRMFY [SOAT2] | 3.14 ± 0.56 | 3.44 ± 0.23

Row | Sequence | protein stability index (treatment: DMSO) | protein stability index (treatment: MLN4924 1 uM, 8 h)
47 | ADSEQADIARMLYKDTCHELDELQ [ZMYND11] | 5.14 ± 0.24 | 4.99 ± 0.2
48 | RLQVKEHQHEEIQNVRNHIHSCFS [ATL3] | 3.21 ± 0.17 | 3.23 ± 0.21
49 | ICKSDAPTGDVLLDEALKHVKETQ [GOLPH3] | 4.64 ± 0.3 | 4.72 ± 0.16
50 | TVRGLHCMCTVGERLYVIGGNHFR [KLHL13] | 2.12 ± 0.26 | 2.18 ± 0.2
51 | VTGEKEEPSRSASEADSEAGELRK [PPEF2] | 5.35 ± 0.61 | 5.5 ± 0.29
52 | TIIEPAGESDNPLRFTSGLVVALD [INTS4] | 3.07 ± 0.37 | 3.24 ± 0.54
53 | ARDRQPSDFKTDKEGGQAGSGQRV [ELOA2] | 5.26 ± 0.33 | 5.26 ± 0.26
54 | REVALLRRLEAFEHPNVVRLMDVC [CDK4] | 2.52 ± 0.15 | 2.68 ± 0.2
55 | TFHDSKHNIVHVHFDATRGWLLTS [WDFY2] | 2.44 ± 0.31 | 2.17 ± 0.13
56 | QARRQQVKQYLSTTLGPKLASQAL [TFE3] | 2.95 ± 0.51 | 2.9 ± 0.23
57 | SMNWGINLLISLTFLTVTDLIGLP [SLC2A12] | 3.3 ± 0.18 | 3.02 ± 0.12
58 | TDSPWIKPARKRRRRSRKKPSGAL [EHMT1] | 5.2 ± 0.39 | 5.22 ± 0.47
59 | CWSFYGQGRKIAEVCCTSIVYATE [KCTD13] | 2.88 ± 0.6 | 2.97 ± 0.79
60 | FAESLQCKVDCEANLTPNVGGYFV [P3H4] | 2.22 ± 0.9 | 2.42 ± 0.65
61 | VSGGSAGGYGGGVSCGFGGGAGSG [KRT13] | 3.47 ± 0.38 | 3.55 ± 0.19
62 | IPGEHFWLLLLTRGLVGVGEASYS [SPNS1] | 3.1 ± 0.47 | 2.37 ± 0.58
63 | LKNGSMGSPVNQQPKKNNVMARTR [FAM219A] | 3.96 ± 0.32 | 4.13 ± 0.27
64 | PEWDTVTPEAKDLINKMLTINPSK [CAMK2A] | 4.886 ± 0.036 | 5.03 ± 0.12
65 | CQALDANLDANLAFASFTSGVVRI [TLE6] | 2.66 ± 0.67 | 2.56 ± 0.37
66 | GLDFHRFYFENLWSRNSKPVHTTI [CAMK2A] | 2.28 ± 0.58 | 2.11 ± 0.32
67 | NQYLYFLFAPTLIYRDSYPRNPTV [SOAT1] | 3.26 ± 0.69 | 2.57 ± 0.62
68 | SLSNAVANTMEHLSLLDNNIPGNS [FBXO33] | 3.64 ± 0.092 | 3.94 ± 0.28
69 | TAQSTFNDLQDLREQILRVKDTDD [RAP1B] | 5.01 ± 0.31 | 4.97 ± 0.27

Row | Sequence | protein stability index (treatment: DMSO) | protein stability index (treatment: MLN4924 1 uM, 8 h)
70 | CRLAKGENGYGFHLNAIRGLPGSF [PDZK1] | 2.08 ± 0.69 | 2.07 ± 0.24
71 | HIGNSTQATVRDAVVGRPSMDKKA [ATL3] | 3.97 ± 0.21 | 4.49 ± 0.6
72 | DGDDKVFRRAPSWRKRFRPREHHG [PPFIA4] | 3.48 ± 0.55 | 4.58 ± 0.14
73 | LAMGTVSLGQLPLPPIPHVFSAGT [PLAGL1] | 2.24 ± 0.26 | 2.4 ± 0.34
74 | KHSTFGQSLTQRLHALKLRSPDAS [GNAS] | 3.37 ± 0.29 | 3.44 ± 0.2
75 | GWLPSHEGHLDDGGYTPDLKMSYS [RBMY1A1] | 3.62 ± 0.15 | 3.5 ± 0.36
76 | FLGSTEVEQPKGTEVVRDAVRKLK [GULP1] | 4.62 ± 0.24 | 4.62 ± 0.16
77 | SSWPFSIQDVVQPLTLQVQRPLVS [AUP1] | 2.77 ± 0.32 | 3.03 ± 0.2
78 | EERLERCMSIVTSMTAGVSEREAN [INTS3] | 4.84 ± 0.35 | 4.78 ± 0.29
79 | KPEEPPQNLLREKIMKLPLPESLK [PCMTD1] | 4.57 ± 0.43 | 4.76 ± 0.13
80 | AGTPGYLSPEVLRKDPYGKPVDMW [CAMK2D] | 3.34 ± 0.5 | 3.25 ± 0.42
81 | GRAGAVGTPGERGPPGPPGPPGPP [EMID1] | 4.6 ± 0.44 | 4.68 ± 0.22
82 | TFRVSSDLIKHQRIHTEEKPYKCQ [ZNF75A] | 3.67 ± 0.15 | 3.8 ± 0.23
83 | AEKLKVQALKDRGLSIPRADTLDE [LSM1] | 4.93 ± 0.3 | 4.98 ± 0.22
84 | ETPQPSPPGGSGSEPYKLLPGAVA [HNF4A] | 5.06 ± 0.21 | 4.92 ± 0.11
85 | EWASHTAALTNKHSQELTNEKEKA [SASS6] | 5.574 ± 0.002 | 5.39 ± 0.19
86 | PGPVCQPPVSQSRSLFSSVPSKPP [ANKRD40] | 4.34 ± 0.39 | 4.54 ± 0.48
87 | DLGHVTRISSPQVEEGDSRFLANE [WEE1] | 4.88 ± 0.29 | 4.96 ± 0.27
88 | MPSPTDVVLPGAVSLRYSGATAAS [ADAMTS4] | 4.16 ± 0.3 | 4.25 ± 0.32
89 | VFLGNKRSLSERTVDKCFGRKKYD [SPATS1] | 2.82 ± 0.24 | 3.21 ± 0.16
90 | DRTSLATFHEGKHNISHMSMDIAR [WDFY1] | 3.54 ± 0.24 | 3.56 ± 0.33
